We go through eight molecules from publication PMC10863849, “A kinesin-13 family kinesin in Trypanosoma brucei regulates cytokinesis and cytoskeleton morphogenesis by promoting microtubule bundling” (PLOS Pathogens, 2024).

Assay in all cases: native gel or EMSA; blue native gel electrophoresis (NativePAGE Novex 3-12% Bis-Tris), 225 ng purified recombinant protein in BRB80-DTT buffer plus 5% glycerol, silver-stained; oligomer size read from band mobility
The target in series [1] is motor domain of KIN13-5 (a.a. 170-536), hexahistidine-tagged (T. brucei).
The target of series [2] is KIN13-5 CC-deletion mutant (a.a. 1-642), hexahistidine-tagged (T. brucei).
For series [3], the target named is recombinant hexahistidine-tagged KIN13-1 (T. brucei).
The target in series [4] is recombinant hexahistidine-tagged full-length KIN13-5 (a.a. 1-719) (T. brucei).
The target in series [5] is KIN13-5 SAM domain-deletion mutant (a.a. 71-719), hexahistidine-tagged (T. brucei).
A further series deals with GST.
Series [6] has as its target GST-fused TbSpef1 (full-length TbSpef1 with N-terminal GST) (T. brucei).
Series [7] deals with the molecule itself.

“motor domain of KIN13-5 (a.a. 170-536), hexahistidine-tagged (domain or fragment)”: in series [1], the stoichiometry N stood at 4.

Consider “KIN13-5 CC-deletion mutant (a.a. 1-642), hexahistidine-tagged (domain or fragment)”, for which, in series [2], the stoichiometry N turned out to be 2.

On to “recombinant hexahistidine-tagged KIN13-1 (natural protein)”, for which the stoichiometry N in series [3] was 2.

For the molecule “recombinant hexahistidine-tagged full-length KIN13-5 (a.a. 1-719) (natural protein)”, the stoichiometry N in series [4] stood at 8.

“KIN13-5 SAM domain-deletion mutant (a.a. 71-719), hexahistidine-tagged (domain or fragment)”: the stoichiometry N in series [5] was 4.

Take GST (natural protein): in the series with GST, the stoichiometry N was 2.

Regarding “GST-fused TbSpef1 (full-length TbSpef1 with N-terminal GST) (natural protein)”, the stoichiometry N in series [6] came out at 4.

B1: recombinant hexahistidine-tagged KIN-G (natural protein)
chain: MAKPLSGKAAPKNISVFLRVRPPVPRELKGGTFNNLVCDPSDPQRVTITRGGSARKGTKSFLFNRVFDPECTQQTIYNEVARGAVDAAFDGQHGVLFVYGQTGSGKTFTISNNDPEKPGVLQQSLRDIWDRFQADTEYDYSCTVSYVQLYNEMLTDLLDPQGGRVRIQLGPEGRGDVVLVTEASGASIERKVESYEDCLKYFYEGMDRKEMTSTKMNNTSSRSHTVFNFNLTRSAKVKTVDLSSAKANNEPVIALQGRLVVCDLAGSERASRTNAEGKTLDEATHINGSLLVLGKVVAALTESGSQHAPFRESKLTRILQYSLLGNGNTSIVVNCSPCDDSTEETLGAIMFGQRAIQIKQDAKRHEILDYKALYYQLLADLDSKNDRTLETALSEERTAYEDRIRVLEERIKILTSENDMLRRESSQLGGTGPVSGTSTASGAAAAAVAMGGDDANDWRSLTMKMRRAIEKLDADLKRTDKERVELAQFLALEKNKVNVLAQKLRAESLKHIMENKELTQRVTELSIDNAKLKGTDYISFQPSAACEDALPLSLDSPRRGTPSSGLSQSINVGDAYLQEQLDKANRQLRVLNEERVELIVYQMMASKAIRLLHAEKTSLANHLEKLKA
Regarding B1, the “stoichiometry N” value in series [7] was ~4.

A word on the stoichiometry N: it is the number of molecules, sites or subunits per partner or assembly.
